Reference: IntAct's records for PubMed 29892012

B1: Zinc finger and BTB domain-containing protein 49 (Homo sapiens), Q6ZSB9 (parent)
chain: MDPVATHSCHLLQQLHEQRIQGLLCDCMLVVKGVCFKAHKNVLAAFSQYFRSLFQNSSSQKNDVFHLDVKNVSGIGQILDFMYTSHLDLNQDNIQVMLDTAQCLQVQNVLSLCHTFLKSATVVQPPGMPCNSTLSLQSTLTPDATCVISENYPPHLLQECSADAQQNKTLDESHPHASPSVNRHHSAGEISKQAPDTSDGSCTELPFKQPNYYYKLRNFYSKQYHKHAAGPSQERVVEQPFAFSTSTDLTTVESQPCAVSHSECILESPEHLPSNFLAQPVNDSAPHPESDATCQQPVKQMRLKKAIHLKKLNFLKSQKYAEQVSEPKSDDGLTKRLESASKNTLEKASSQSAEEKESEEVVSCENFNCISETERPEDPAALEDQSQTLQSQRQYACELCGKPFKHPSNLELHKRSHTGEKPFECNICGKHFSQAGNLQTHLRRHSGEKPYICEICGKRFAASGDVQRHIIIHSGEKPHLCDICGRGFSNFSNLKEHKKTHTADKVFTCDECGKSFNMQRKLVKHRIRHTGERPYSCSACGKCFGGSGDLRRHVRTHTGEKPYTCEICNKCFTRSAVLRRHKKMHCKAGDESPDVLEELSQAIETSDLEKSQSSDSFSQDTSVTLMPVSVKLPVHPVENSVAEFDSHSGGSYCKLRSMIQPHGVSDQEKLSLDPGKLAKPQMQQTQPQAYAYSDVDTPAGGEPLQADGMAMIRSSLAALDNHGGDPLGSRASSTTYRNSEGQFFSSMTLWGLAMKTLQNENELDQ
partner: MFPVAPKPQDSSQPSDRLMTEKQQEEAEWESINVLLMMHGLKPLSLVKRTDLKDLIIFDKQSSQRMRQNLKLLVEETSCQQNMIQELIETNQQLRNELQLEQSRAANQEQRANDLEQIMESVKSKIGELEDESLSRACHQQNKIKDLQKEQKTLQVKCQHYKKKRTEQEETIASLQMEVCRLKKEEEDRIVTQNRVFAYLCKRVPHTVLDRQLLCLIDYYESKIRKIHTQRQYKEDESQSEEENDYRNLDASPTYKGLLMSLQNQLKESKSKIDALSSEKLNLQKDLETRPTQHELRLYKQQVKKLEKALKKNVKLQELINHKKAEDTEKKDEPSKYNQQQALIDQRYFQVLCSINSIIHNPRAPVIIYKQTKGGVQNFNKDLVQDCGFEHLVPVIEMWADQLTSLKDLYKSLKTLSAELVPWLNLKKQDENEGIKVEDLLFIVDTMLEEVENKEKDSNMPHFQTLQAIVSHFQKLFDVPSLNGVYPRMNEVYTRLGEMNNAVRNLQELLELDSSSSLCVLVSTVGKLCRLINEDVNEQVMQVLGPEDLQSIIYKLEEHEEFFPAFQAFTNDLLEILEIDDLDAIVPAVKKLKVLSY
B2: Glucosamine-6-phosphate deaminase 2 (Homo sapiens), Q8TDQ7 (parent)
chain: MRLVILDNYDLASEWAAKYICNRIIQFKPGQDRYFTLGLPTGSTPLGCYKKLIEYHKNGHLSFKYVKTFNMDEYVGLPRNHPESYHSYMWNNFFKHIDIDPNNAHILDGNAADLQAECDAFENKIKEAGGIDLFVGGIGPDGHIAFNEPGSSLVSRTRLKTLAMDTILANAKYFDGDLSKVPTMALTVGVGTVMDAREVMILITGAHKAFALYKAIEEGVNHMWTVSAFQQHPRTIFVCDEDATLELRVKTVKYFKGLMHVHNKLVDPLFSMKDGN
partner: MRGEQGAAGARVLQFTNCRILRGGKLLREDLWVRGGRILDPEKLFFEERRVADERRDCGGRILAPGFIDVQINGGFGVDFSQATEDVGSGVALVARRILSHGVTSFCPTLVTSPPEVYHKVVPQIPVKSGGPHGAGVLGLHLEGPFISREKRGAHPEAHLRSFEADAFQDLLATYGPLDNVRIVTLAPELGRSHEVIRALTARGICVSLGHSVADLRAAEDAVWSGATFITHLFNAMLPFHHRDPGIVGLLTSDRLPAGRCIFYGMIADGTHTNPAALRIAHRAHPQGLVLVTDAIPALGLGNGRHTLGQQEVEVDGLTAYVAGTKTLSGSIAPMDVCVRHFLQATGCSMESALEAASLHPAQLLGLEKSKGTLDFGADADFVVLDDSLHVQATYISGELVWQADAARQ
B3: Abl interactor 2 (Homo sapiens), Q9NYB9 (parent)
chain: MAELQMLLEEEIPGGRRALFDSYTNLERVADYCENNYIQSADKQRALEETKAYTTQSLASVAYLINTLANNVLQMLDIQASQLRRMESSINHISQTVDIHKEKVARREIGILTTNKNTSRTHKIIAPANLERPVRYIRKPIDYTILDDIGHGVKWLLRFKVSTQNMKMGGLPRTTPPTQKPPSPPMSGKGTLGRHSPYRTLEPVRPPVVPNDYVPSPTRNMAPSQQSPVRTASVNQRNRTYSSSGSSGGSHPSSRSSSRENSGSGSVGVPIAVPTPSPPSVFPAPAGSAGTPPLPATSASAPAPLVPATVPSSTAPNAAAGGAPNLADGFTSPTPPVVSSTPPTGHPVQFYSMNRPASRHTPPTIGGSLPYRRPPSITSQTSLQNQMNGGPFYSQNPVSDTPPPPPPVEEPVFDESPPPPPPPEDYEEEEAAVVEYSDPYAEEDPPWAPRSYLEKVVAIYDYTKDKEDELSFQEGAIIYVIKKNDDGWYEGVMNGVTGLFPGNYVESIMHYSE
partner: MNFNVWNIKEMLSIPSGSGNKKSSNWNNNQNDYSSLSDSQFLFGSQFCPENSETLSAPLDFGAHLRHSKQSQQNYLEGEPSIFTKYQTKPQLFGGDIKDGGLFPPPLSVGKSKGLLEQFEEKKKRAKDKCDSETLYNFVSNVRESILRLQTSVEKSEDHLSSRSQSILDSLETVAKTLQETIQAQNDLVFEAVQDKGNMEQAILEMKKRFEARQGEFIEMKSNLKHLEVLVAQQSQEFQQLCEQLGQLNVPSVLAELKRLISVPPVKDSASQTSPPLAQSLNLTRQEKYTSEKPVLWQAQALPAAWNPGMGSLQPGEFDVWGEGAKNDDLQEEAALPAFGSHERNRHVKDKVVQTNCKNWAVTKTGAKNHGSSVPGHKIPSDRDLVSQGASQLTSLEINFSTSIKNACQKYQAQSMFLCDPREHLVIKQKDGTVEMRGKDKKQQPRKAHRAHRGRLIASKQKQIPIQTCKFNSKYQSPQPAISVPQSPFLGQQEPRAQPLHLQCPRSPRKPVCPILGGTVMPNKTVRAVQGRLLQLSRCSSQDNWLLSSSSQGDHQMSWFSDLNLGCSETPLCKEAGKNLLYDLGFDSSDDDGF
B4: Abl interactor 2 (Homo sapiens), Q9NYB9 (parent)
chain: B3 chain
partner: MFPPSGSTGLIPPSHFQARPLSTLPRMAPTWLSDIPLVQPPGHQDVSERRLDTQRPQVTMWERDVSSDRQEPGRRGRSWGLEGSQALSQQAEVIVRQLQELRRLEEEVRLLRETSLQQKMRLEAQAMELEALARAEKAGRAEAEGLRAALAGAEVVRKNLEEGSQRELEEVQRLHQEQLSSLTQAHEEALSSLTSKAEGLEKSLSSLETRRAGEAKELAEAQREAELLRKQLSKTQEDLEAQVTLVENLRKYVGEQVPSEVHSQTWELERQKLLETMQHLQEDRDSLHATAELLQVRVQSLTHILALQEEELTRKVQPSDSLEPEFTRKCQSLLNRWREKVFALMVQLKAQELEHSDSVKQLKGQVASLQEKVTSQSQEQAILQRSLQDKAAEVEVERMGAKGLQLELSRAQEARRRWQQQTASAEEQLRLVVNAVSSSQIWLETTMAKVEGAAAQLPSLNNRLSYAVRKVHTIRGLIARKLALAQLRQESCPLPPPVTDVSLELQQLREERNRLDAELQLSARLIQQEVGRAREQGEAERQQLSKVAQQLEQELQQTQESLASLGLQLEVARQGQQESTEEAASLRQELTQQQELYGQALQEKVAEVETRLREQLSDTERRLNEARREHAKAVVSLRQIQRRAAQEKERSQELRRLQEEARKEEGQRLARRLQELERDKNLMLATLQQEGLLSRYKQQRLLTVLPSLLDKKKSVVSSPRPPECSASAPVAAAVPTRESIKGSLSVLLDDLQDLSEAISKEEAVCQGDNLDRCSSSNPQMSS
B5: Late cornified envelope protein 1B (Homo sapiens), Q5T7P3 (parent)
chain: MSCQQNQQQCQPPPKCIPKCPPKCLTPRCPPKCPPKCPPVSSCCSVSSGGCCGSSSGGSCGSSSGGCCSSGGGGCCLSHHRRRRSHCHRPQSSGCCSQPSGGSSCCGGGSGQHSGGCC
partner: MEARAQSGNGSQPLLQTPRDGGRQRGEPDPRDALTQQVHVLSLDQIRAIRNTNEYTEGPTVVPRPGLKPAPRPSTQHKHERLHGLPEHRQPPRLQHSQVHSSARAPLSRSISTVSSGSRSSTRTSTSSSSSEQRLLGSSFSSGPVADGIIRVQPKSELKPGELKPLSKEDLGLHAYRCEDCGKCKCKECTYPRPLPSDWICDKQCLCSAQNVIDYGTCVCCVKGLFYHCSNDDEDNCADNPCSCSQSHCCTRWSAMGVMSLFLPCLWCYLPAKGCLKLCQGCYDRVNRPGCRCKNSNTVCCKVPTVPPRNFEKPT

Variants of: B1
Conditions: with cep70_human CEP70, Q8NHQ1

| effect of a mutation on the interaction | Variant |
| --- | --- |
| with no effect | D88V |

Variants of: B2
Conditions: with naga_human AMDHD2, Q9Y303

| effect of a mutation on the interaction | Variant |
| --- | --- |
| with no effect | I216V |

Variants of: B3
Conditions: with iho1_human IHO1, Q8IYA8

| effect of a mutation on the interaction | Variant |
| --- | --- |
| with no effect | E202K |

Variants of: B3
Conditions: with iho1_human IHO1, Q8IYA8
Remark: another data set of the same source

| effect of a mutation on the interaction | Variant |
| --- | --- |
| with no effect | R373C |

Variants of: B4
Conditions: with cchcr_human CCHCR1, Q8TD31

| Variant | effect of a mutation on the interaction |
| --- | --- |
| R373C | with no effect |

Variants of: B4
Conditions: with cchcr_human CCHCR1, Q8TD31
Remark: another data set of the same source

| Variant | effect of a mutation on the interaction |
| --- | --- |
| E202K | with no effect |

Variants of: B5
Conditions: with spy2_human SPRY2, O43597

| effect of a mutation on the interaction | Variant |
| --- | --- |
| with no effect | C16Y |
